Source: US20220348665A1

Assays:
[1] = target: human IGF1R extracellular domain, recombinant, His tag at C-terminus (human) (UniProt P08069); assay: ELISA on ECD of IGF1R, bispecific form
[2] = target: human IGF1R, endogenous, on the surface of breast cancer cell lines (MCF-7, JIMT-1, BT474) (human) (UniProt P08069); assay: FACS on MCF-7 cells, antibody 10 ug/mL (2nd Ab only 2.86, not treated 1.88)
[3] = target: human IGF1R, endogenous, on the surface of breast cancer cell lines (MCF-7, JIMT-1, BT474) (human) (UniProt P08069); assay: FACS on MCF-7 cells (2nd Ab only 2.92)
[4] = target: human IGF1R extracellular domain, recombinant, His tag at C-terminus (human) (UniProt P08069); assay: SPR (Biacore T200), His-tagged human IGF1R ECD captured by anti-his antibody on CM4 chip, bivalent model

B1: Hu3A9-C04 (bispecific antibody form of 1564 affinity variant C04) (bispecific antibody, part only; not given: humanized 3A9 IgG carrier, linker, not shown: another chain or arm of the molecule; a dimerising Fc or GST; large carriers; small tags and cut ends)
scFv: QSVLTQPPSASGTPGQRVTISCTGSSSNIGSNDVSWYQQLPGTAPKLLIYANSNRPSGVSDRFSGSKSGTSASLAISGLRSEDEADYYCGAWEQWLNGYVFGCGTKLTVLGGGGSGGGGSGGGGSGGGGSEVQLLESGGGLVQPGGSLRLSCAASGFTFSSYDMSWVRQAPGKCLEWVSAISYDNGNTYYADSVKGRFTISRDNSKNTLYLQMNSLRAEDTAVYYCAKGVLTTLMNWFDYWGQGTLVTVSS
[1]
  EC50: 0.107 nM
[2]
  GeoMean, Internalization at 37° C.: 7.23

B2: C04 (1564 affinity variant) in bispecific antibody form, backbone not stated (bispecific antibody, not shown: small tags and cut ends)
scFv: QSVLTQPPSASGTPGQRVTISCTGSSSNIGSNDVSWYQQLPGTAPKLLIYANSNRPSGVSDRFSGSKSGTSASLAISGLRSEDEADYYCGAWEQWLNGYVFGCGTKLTVLGGGGSGGGGSGGGGSGGGGSEVQLLESGGGLVQPGGSLRLSCAASGFTFSSYDMSWVRQAPGKCLEWVSAISYDNGNTYYADSVKGRFTISRDNSKNTLYLQMNSLRAEDTAVYYCAKGVLTTLMNWFDYWGQGTLVTVSS
[3]
  GEOmean: 3.88

B3: hu3A9x1564_F06 (bispecific antibody: humanized 3A9 IgG with F06 scFv) (bispecific antibody, part only; not given: humanized 3A9 IgG carrier, linker, not shown: another chain or arm of the molecule; a dimerising Fc or GST; large carriers; small tags and cut ends)
scFv: QSVLTQPPSASGTPGQRVTISCTGSSSNIGSNDVSWYQQLPGTAPKLLIYANSNRPSGVSDRFSGSKSGTSASLAISGLRSEDEADYYCGTWAGSLNGYVFGCGTKLTVLGGGGSGGGGSGGGGSGGGGSEVQLLESGGGLVQPGGSLRLSCAASGFTFSSYDMSWVRQAPGKCLEWVSAISYDNGNTYYADSVKGRFTISRDNSKNTLYLQMNSLRAEDTAVYYCAKGVLTTLMNWFDYWGQGTLVTVSS
[2]
  GeoMean, Internalization at 37° C.: 19.8

B4: F06 IgG (anti-IGF1R clone F06, full IgG1 form) (antibody, from a related filing, V domains shown)
VH: EVQLLESGGGLVQPGGSLRLSCAASGFTFSSYDMSWVRQAPGKGLEWVSAISYDNGNTYYADSVKGRFTISRDNSKNTLYLQMNSLRAEDTAVYYCAKGVLTTLMNWFDYWGQGTLVTVSS
VL: QSVLTQPPSASGTPGQRVTISCTGSSSNIGSNDVSWYQQLPGTAPKLLIYANSNRPSGVPDRFSGSKSGTSASLAISGLRSEDEADYYCGTWAGSLNGYVFGGGTKLTVL
[4]
  Kd: 478 nM
